Measured values: US20220127365A1

How the values were obtained:
human CD94 (human) [1] = biological target: human CD94 (human) (UniProt Q13241); assay: HLA-E tetramer blocking on healthy-donor PBMC NK cells, flow cytometry; competitor HLA-E tetramer
human CD94 (human) [2] = biological target: human CD94 (human) (UniProt Q13241); assay: table column 'Affinity on human NK cells'; flow cytometry titration on human primary NK cells (the filing gives these affinities as EC50 of the titration curve)
human CD94 (human) [3] = biological target: human CD94 (human) (UniProt Q13241); assay: table column 'HLA-E blocking'; flow cytometry on NK cells of healthy donor PBMCs, antibody at saturating concentration, blocked ligand PE labeled HLA-E tetramer; percent blocking = 100-((percent HLA-E positive with antibody)/(percent HLA-E positive with isotype)*100)
human CD94 (human) [4] = biological target: human CD94 (human) (UniProt Q13241); assay: competition assay, flow cytometry on NK cells of healthy donor PBMCs; labeled HP-3B1 titrated, concurrently Human IgG1 control
human CD94 (human) [5] = biological target: human CD94 (human) (UniProt Q13241); assay: competition assay, flow cytometry on CD3-CD56+ NK cells of healthy donor PBMCs; labeled HP-3B1 titrated in the presence of 1E4 at 11 µg/ml
human CD94 (human) [6] = biological target: human CD94 (human) (UniProt Q13241); assay: competition assay, flow cytometry on CD3-CD56+ NK cells of healthy donor PBMCs; labeled HP-3B1 titrated, concurrently Human IgG1 control (or 18H3 at 1.3 µg/ml)

Chain of human CD94 (human) (Q13241 whole entry): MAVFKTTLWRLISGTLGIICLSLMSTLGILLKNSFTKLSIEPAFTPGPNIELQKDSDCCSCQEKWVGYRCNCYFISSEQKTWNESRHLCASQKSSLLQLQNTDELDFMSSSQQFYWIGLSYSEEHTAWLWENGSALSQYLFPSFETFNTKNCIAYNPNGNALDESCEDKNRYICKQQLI

percent HLA-E blocking (human CD94 (human) [1]) [%]	Affinity on human NK cells (human CD94 (human) [2]) [nM]	HLA-E blocking (human CD94 (human) [3]) [%]	EC50 (read off the curve) (human CD94 (human) [4]) [nM]	EC50 (read off the curve) (human CD94 (human) [5]) [nM]	EC50 (read off the curve) (human CD94 (human) [6]) [nM]	Substance
> 40	0.15	99	–	–	–	anti-CD94 antibody clone DX22
> 40	3	99.8	3	2	3	anti-CD94 antibody clone HP-3B1
